Earlier results on one molecule are cited in US7323168B2, “Immunotherapy for chronic myelocytic leukemia” (Immunomedics, Inc., priority 2000, dated 2008).

The series has as its system IFN-γ levels. The conditions noted are these: single intravenous dose 42.5 μg/kilogram, rhesus monkeys.

B1: recombinant IL-12: recombinant interleukin-12 (protein, UniProt P29459 23-219; P29460 23-328, looked up)
Interleukin-12 subunit alpha: RNLPVATPDPGMFPCLHHSQNLLRAVSNMLQKARQTLEFYPCTSEEIDHEDITKDKTSTVEACLPLELTKNESCLNSRETSFITNGSCLASRKTSFMMALCLSSIYEDLKMYQVEFKTMNAKLLMDPKRQIFLDQNMLAVIDELMQALNFNSETVPQKSSLEEPDFYKTKIKLCILLHAFRIRAVTIDRVMSYLNAS
Interleukin-12 subunit beta: IWELKKDVYVVELDWYPDAPGEMVVLTCDTPEEDGITWTLDQSSEVLGSGKTLTIQVKEFGDAGQYTCHKGGEVLSHSLLLLHKKEDGIWSTDILKDQKEPKNKTFLRCEAKNYSGRFTCWWLTTISTDLTFSVKSSRGSSDPQGVTCGAATLSAERVRGDNKEYEYSVECQEDSACPAAEESLPIEVMVDAVHKLKYENYTSSFFIRDIIKPDPPKNLQLKPLKNSRQVEVSWEYPDTWSTPHSYFSLTFCVQVQGKSKREKKDRVFTDKTSATVICRKNASISVRAQDRYYSSSWSEWASVPCS
Consider B1, for which the IFN-γ levels result is “elevated”.
